According to paper PMC9547493 (2020):
Bridge positions count the residues as written; N and C are the ends. Ends that are not written are not given here. γCp(RSS) = N-terminal (R,S,S)-cyclopropane γ-amino acid; γCp(SRR) = N-terminal (S,R,R)-cyclopropane γ-amino acid

Experiments:
[1] = biological target: T1, CeiPGM-γCp(SRR) (synthetic construct, thioether N-14); test: SPR
T1 chain: {γCp(SRR)}-FSISGIEWNGPEIC

[2] = biological target: T2, CeiPGM-γCp(RSS) (synthetic construct, thioether N-14); test: SPR
T2 chain: {γCp(RSS)}-FSISGIEWNGPEIC

Kd [1]: 800 pM | Kd [2]: 300 pM
B1: CeiPGM (cofactor-independent phosphoglycerate mutase) (protein)
chain: MFVALGAQIYRQYFGRRGMAMANNSSVANKVCLIVIDGWGVSEDPYGNAILNAQTPVMDKLCSGNWAQIEAHGLHVGLPEGLMGNSEVGHLNIGAGRVIYQDIVRINLAVKNNKFVTNESLVDACDRAKNGNGRLHLAGLVSDGGVHSHIDHMFALVKAIKELGVPELYLHFYGDGRDTSPNSGVGFLEQTLEFLEKTTGYGKLATVVGRYYAMDRDNRWERINVAYEAMIGGVGETSDEAGVVEVVRKRYAADETDEFLKPIILQGEKGRVQNDDTIIFFDYRADRMREISAAMGMDRYKDCNSKLAHPSNLQVYGMTQYKAEFPFKSLFPPASNKNVLAEWLAEQKVSQFHCAETEKYAHVTFFFNGGLEKQFEGEERCLVPSPKVATYDLQPEMSAAGVADKMIEQLEAGTHPFIMCNFAPPDMVGHTGVYEAAVKACEATDIAIGRIYEATQKHGYSLMVTADHGNAEKMKAPDGGKHTAHTCYRVPLTLSHPGFKFVDPADRHPALCDVAPTVLAIMGLPQPAEMTGVSIVQKI
